Experimental data from publication PMC12732657.
pKd: −log10 of the molar value.

What was measured:
[1] = target: Bovine pancreatic β-trypsin (bovine); assay: ITC; CVTI (200 µM) injected in 2.02 µL steps into 170 µL cell with bovine trypsin (20 µM); 50 mM Tris pH 7.8, 150 mM NaCl; Nano ITC
[2] = target: Bovine pancreatic β-trypsin (bovine)

“Cleome viscosa trypsin inhibitor (natural protein)” gave a Ka [1] of 513000 M⁻¹, a pKd [1] of 5.71 and a dH [1] of 76.8 kcal/mol. The stoichiometry N [1] was 1.1 and the Vmax of caseinolysis by trypsin (5 µM) in the presence of CVTI (15 µM); 20.23 µM/min without CVTI [2] was 16.7 µM/min.
